Source: US7658917 (PRAECIS PHARMACEUTICALS, dated 2010)

Biological target: natural β-amyloid peptide β-AP1-40 (human)
Test: cell-based or functional assay

| Binder | % Inhibition of Plateau; nucleation assay; 100 mole % [%] | Fold Increase in Lag Time; nucleation assay; 100 mole % [fold] |
| --- | --- | --- |
| DAEFRHDSGYKLVFFAEDVGSNKGAIIGLMVGGVV [Aβ1-10, 16-40(Δ11-15)] | ~0 | ~1.2 |
| DAEFRHDSGYEVHHQAEDVGSNKGAIIGLMVGGVV [Aβ1-15, 21-40(Δ16-20)] | ~0 | 1.55 |

Continued, values first:

| % Inhibition of Plateau; nucleation assay; 100 mole % [%] | Fold Increase in Lag Time; nucleation assay; 100 mole % [fold] | Binder |
| --- | --- | --- |
| 18 | ~1 | DAEFRHDSGYEVHHQ [unmodified Aβ1-15] |
| ~0 | 0.8 | SNKGAIIGLMVGGVV [unmodified Aβ26-40] |
| ~0 | 2.37 | DAEFRHDSGYEVHHQKLVFFSNKGAIIGLMVGGVV [Aβ1-20, 26-40(Δ21-25)] |
